Reference: PMC8263732, “M1BP cooperates with CP190 to activate transcription at TAD borders and promote chromatin insulator activity” (Nature Communications, 2021)

Columns and labels:
Experiment in all cases: co-IP; 500 ug nuclear extract of 0-24 h Drosophila embryos incubated overnight at 4 C with antiserum (anti-Su(Hw), anti-CP190, anti-Mod(mdg4)67.2 or anti-M1BP; normal serum as control) cross-linked to Protein A or G Sepharose; washed twice with HBSMT and once with HBSM; western blotting; efficiency as percent of total input protein
Details in all cases: partners not purified
[1] = target: T1, Centrosomal protein 190 (CP190) (Drosophila (endogenous in 0-24 h Oregon …, UniProt Q24478 1-1096))
T1 construct: Centrosomal protein 190 (CP190), universal insulator protein of Drosophila; endogenous protein in embryonic nuclear extract; source: endogenous, nuclear extract of 0-24 h Drosophila embryos
T1 sequence (looked up): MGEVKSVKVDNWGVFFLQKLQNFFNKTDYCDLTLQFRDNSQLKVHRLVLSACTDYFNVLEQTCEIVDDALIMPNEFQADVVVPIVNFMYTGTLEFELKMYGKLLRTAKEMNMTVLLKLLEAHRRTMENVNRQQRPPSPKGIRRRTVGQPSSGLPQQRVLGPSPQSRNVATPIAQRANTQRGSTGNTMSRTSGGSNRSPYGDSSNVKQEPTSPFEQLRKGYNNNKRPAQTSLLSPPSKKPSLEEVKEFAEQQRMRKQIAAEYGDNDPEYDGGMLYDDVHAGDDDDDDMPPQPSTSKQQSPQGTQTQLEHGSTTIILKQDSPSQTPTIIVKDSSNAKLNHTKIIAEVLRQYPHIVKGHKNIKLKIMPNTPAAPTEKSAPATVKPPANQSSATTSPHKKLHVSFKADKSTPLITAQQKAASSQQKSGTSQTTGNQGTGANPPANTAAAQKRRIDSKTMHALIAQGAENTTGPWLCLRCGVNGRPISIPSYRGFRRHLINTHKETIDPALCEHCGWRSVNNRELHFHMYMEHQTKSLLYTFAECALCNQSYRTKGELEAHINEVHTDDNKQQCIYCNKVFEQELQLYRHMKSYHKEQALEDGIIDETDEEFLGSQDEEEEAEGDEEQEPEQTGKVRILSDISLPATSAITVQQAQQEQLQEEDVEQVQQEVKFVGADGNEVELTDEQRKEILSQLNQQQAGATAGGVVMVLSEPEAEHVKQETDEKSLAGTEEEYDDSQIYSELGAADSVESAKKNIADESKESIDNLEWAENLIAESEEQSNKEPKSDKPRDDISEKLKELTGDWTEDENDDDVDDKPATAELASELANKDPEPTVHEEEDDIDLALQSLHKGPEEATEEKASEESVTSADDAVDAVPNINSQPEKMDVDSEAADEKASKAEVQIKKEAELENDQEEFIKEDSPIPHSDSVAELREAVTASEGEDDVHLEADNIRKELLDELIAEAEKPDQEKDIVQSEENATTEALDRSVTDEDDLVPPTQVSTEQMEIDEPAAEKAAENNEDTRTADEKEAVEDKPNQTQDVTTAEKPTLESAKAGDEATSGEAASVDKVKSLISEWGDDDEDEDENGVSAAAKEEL

[2] = target: T2, Motif 1 Binding Protein (M1BP) (Drosophila (endogenous in 0-24 h Oregon …, UniProt Q9VHM3 1-418))
T2 construct: endogenous protein in embryonic nuclear extract; source: endogenous, nuclear extract of 0-24 h Drosophila embryos
T2 sequence (looked up): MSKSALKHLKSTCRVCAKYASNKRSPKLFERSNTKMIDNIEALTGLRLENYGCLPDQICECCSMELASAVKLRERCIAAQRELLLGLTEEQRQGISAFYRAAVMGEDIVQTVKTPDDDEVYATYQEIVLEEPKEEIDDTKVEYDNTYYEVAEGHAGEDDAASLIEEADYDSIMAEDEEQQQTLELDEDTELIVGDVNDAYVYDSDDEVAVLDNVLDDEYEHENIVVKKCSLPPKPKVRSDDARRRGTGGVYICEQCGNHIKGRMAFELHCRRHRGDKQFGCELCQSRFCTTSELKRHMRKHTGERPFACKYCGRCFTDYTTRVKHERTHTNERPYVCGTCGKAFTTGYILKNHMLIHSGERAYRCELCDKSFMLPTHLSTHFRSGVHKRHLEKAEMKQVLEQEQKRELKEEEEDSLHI

[3] = target: T3, Modifier of mdg4 [Mod(mdg4)] 67.2 kDa isoform [Mod(mdg4)67.2] (Drosophila (endogenous in 0-24 h Oregon …, UniProt Q86B87 1-610))
T3 construct: Modifier of mdg4, the 67.2 kDa isoform, Drosophila; The gene has many isoforms; the 67.2 kDa isoform is meant; to be checked; source: endogenous, nuclear extract of 0-24 h Drosophila embryos
T3 sequence (looked up): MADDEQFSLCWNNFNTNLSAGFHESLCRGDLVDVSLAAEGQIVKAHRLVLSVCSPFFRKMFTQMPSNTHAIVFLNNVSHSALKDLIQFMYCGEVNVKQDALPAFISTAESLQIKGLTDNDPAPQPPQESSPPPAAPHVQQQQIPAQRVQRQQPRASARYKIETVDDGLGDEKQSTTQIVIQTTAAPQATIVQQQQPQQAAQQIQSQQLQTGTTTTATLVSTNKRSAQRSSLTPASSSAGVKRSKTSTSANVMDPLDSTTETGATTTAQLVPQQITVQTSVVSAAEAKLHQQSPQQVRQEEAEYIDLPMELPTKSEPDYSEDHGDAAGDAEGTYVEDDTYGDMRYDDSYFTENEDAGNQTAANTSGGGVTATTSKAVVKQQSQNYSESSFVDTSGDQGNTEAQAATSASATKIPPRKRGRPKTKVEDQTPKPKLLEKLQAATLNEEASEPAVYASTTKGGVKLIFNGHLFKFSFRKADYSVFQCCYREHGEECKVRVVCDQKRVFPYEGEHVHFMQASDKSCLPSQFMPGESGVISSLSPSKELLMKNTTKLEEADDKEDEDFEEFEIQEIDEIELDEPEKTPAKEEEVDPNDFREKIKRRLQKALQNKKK

percent of total protein immunoprecipitated with anti-CP190 [1]: 7%
percent of total protein immunoprecipitated with anti-M1BP [2]: 2.6%
percent of total protein immunoprecipitated with anti-Mod(mdg4)67.2 [3]: 8.5%
B1: Suppressor of Hairy wing [Su(Hw)] (natural protein, UniProt P08970 1-941, looked up)
chain: MSASKEGKEKKGKLLGVENISPPKDKRPATRMKLLNDVGAGEDSEASTTTTTSRTPSNKQEKRGSVAGSRIKILNEEILGTPKTEKRGATKSTAPAASTVKILNEKKTPSATVTAVETTKIKTSPSKRKKMEHYVLQAVKSENTKADTTVTVVTEEDDTIDFILADDEEVVPGRIENNNGQEIVVTEDDEDLGEDGDEDGEDSSGKGNSSQTKIKEIVEHVCGKCYKTFRRVQSLKKHLEFCRYDSGYHLRKADMLKNLEKIEKDAVVMEKKDICFCCSESYDTFHLGHINCPDCPKSFKTQTSYERHIFITHSEFSDFPCSICNANLRSEALLALHEEQHKSRGKPYACKICGKDFTRSYHLKRHQKYSSCSSNETDTMSCKVCDRVFYRLDNLRSHLKQHLGTQVVKKPEYMCHTCKNCFYSLSTLNIHIRTHTGEKPFDCDLCDKKFSALVALKKHRRYHTGEKPYSCTVCNQAFAVKEVLNRHMKRHTGERPHKCDECGKSFIQATQLRTHSKTHIRPFPCEQCDEKFKTEKQLERHVKTHSRTKRPVFSCAECKRNFRTPALLKEHMDEGKHSPKQQRSSMRSAVKIMERTDCAICDKNFDSSDTLRRHIRTVHECDPDDIFGVEPHPSKRAKKDIESEEVVPVALNTSAGSLISSQTDGNGVVVREFLVDEGDGAAQTITLENETYTILPLDGAIEGEQLTDEAGVKPEAKKEEAQVSPVVKKEQRKSLAASLAAAIADNLEESCSEDDFSGEILTEEDIKLKENVGKLIDMLVDPPILKKYGWPNAPEETVLCKVIENCGHDLTKGGENYAELDYGSRMREYCKLLFTVVIHNDSIKSLLNNFPIDDVIEYVLGDEDQDEGGLDKDNESHSGDEEAVSVTGETKTNEIREKPEKKEVSAKSEKKEIVGKAVDKDNSEEVVRENKKKPVGEQEKA
notes: endogenous protein in embryonic nuclear extract; source: endogenous, nuclear extract of 0-24 h Drosophila embryos
